Assays:
Assay in all cases: MST
[1] = target: wild type human SOD1 (Cu/Zn superoxide dismutase) (human, UniProt P00441 1-154, fluorescently labeled (NanoTemper BLUE protein-labeling kit) where it was the labelled partner in MST)
human mutant SOD1^G93A = human mutant SOD1^G93A (human, fluorescently labeled (NanoTemper BLUE protein-labeling kit) where it was the labelled partner in MST)
Target sequence (chain, as listed by the source G93A): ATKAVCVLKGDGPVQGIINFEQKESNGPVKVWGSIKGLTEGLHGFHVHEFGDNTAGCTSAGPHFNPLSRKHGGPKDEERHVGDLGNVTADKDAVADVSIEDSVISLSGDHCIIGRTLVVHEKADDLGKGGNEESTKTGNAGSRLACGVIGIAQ

human mutant SOD1^G85R = human mutant SOD1^G85R (human, fluorescently labeled (NanoTemper BLUE protein-labeling kit) where it was the labelled partner in MST)
Target sequence (chain, as listed by the source G85R): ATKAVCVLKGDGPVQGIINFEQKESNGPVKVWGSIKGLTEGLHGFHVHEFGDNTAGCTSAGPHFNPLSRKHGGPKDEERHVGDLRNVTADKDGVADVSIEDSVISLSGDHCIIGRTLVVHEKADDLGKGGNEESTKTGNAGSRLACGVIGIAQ

Chain of wild type human SOD1 (Cu/Zn superoxide dismutase) (P00441 whole entry): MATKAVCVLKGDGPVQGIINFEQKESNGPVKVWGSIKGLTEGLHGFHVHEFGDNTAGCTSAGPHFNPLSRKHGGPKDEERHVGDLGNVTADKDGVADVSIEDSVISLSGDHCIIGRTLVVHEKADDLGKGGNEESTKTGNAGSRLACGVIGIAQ

EC50 [1]: > 200 µM
EC50 (human mutant SOD1^G93A): 3.75 µM
EC50 (human mutant SOD1^G85R): 3.75 µM
Binder: MAVPPTYADLGKSARDVFTKGYGFGL [1-26 N-Terminal peptide of VDAC1]

Source: publication PMC6702328 (2019)
